B1: NR4a2: NR4a2 (NR4A2; NURR1), nuclear hormone receptor cDNA driver (protein, UniProt P43354 1-598, looked up)
Nuclear receptor subfamily 4 …: MPCVQAQYGSSPQGASPASQSYSYHSSGEYSSDFLTPEFVKFSMDLTNTEITATTSLPSFSTFMDNYSTGYDVKPPCLYQMPLSGQQSSIKVEDIQMHNYQQHSHLPPQSEEMMPHSGSVYYKPSSPPTPTTPGFQVQHSPMWDDPGSLHNFHQNYVATTHMIEQRKTPVSRLSLFSFKQSPPGTPVSSCQMRFDGPLHVPMNPEPAGSHHVVDGQTFAVPNPIRKPASMGFPGLQIGHASQLLDTQVPSPPSRGSPSNEGLCAVCGDNAACQHYGVRTCEGCKGFFKRTVQKNAKYVCLANKNCPVDKRRRNRCQYCRFQKCLAVGMVKEVVRTDSLKGRRGRLPSKPKSPQEPSPPSPPVSLISALVRAHVDSNPAMTSLDYSRFQANPDYQMSGDDTQHIQQFYDLLTGSMEIIRGWAEKIPGFADLPKADQDLLFESAFLELFVLRLAYRSNPVEGKLIFCNGVVLHRLQCVRGFGEWIDSIVEFSSNLQNMNIDISAFSCIAALAMVTERHGLKEPKRVEELQNKIVNCLKDHVTFNNGGLNRPNYLSKLLGKLPELRTLCTQGLQRIFYLKLEDLVPPPAIIDKLFLDTLPF
B2: DAX-1: DAX1 (NR0B1), cDNA driver (protein, UniProt P51843 1-470, looked up)
Nuclear receptor subfamily 0 …: MAGENHQWQGSILYNMLMSAKQTRAAPEAPETRLVDQCWGCSCGDEPGVGREGLLGGRNVALLYRCCFCGKDHPRQGSILYSMLTSAKQTYAAPKAPEATLGPCWGCSCGSDPGVGRAGLPGGRPVALLYRCCFCGEDHPRQGSILYSLLTSSKQTHVAPAAPEARPGGAWWDRSYFAQRPGGKEALPGGRATALLYRCCFCGEDHPQQGSTLYCVPTSTNQAQAAPEERPRAPWWDTSSGALRPVALKSPQVVCEAASAGLLKTLRFVKYLPCFQVLPLDQQLVLVRNCWASLLMLELAQDRLQFETVEVSEPSMLQKILTTRRRETGGNEPLPVPTLQHHLAPPAEARKVPSASQVQAIKCFLSKCWSLNISTKEYAYLKGTVLFNPDVPGLQCVKYIQGLQWGTQQILSEHTRMTHQGPHDRFIELNSTLFLLRFINANVIAELFFRPIIGTVSMDDMMLEMLCTKI
B3: NR4a3: NR4a3 (NR4A3; NOR1), nuclear hormone receptor cDNA driver (protein, UniProt Q92570 1-626, looked up)
Nuclear receptor subfamily 4 …: MPCVQAQYSPSPPGSSYAAQTYSSEYTTEIMNPDYTKLTMDLGSTEITATATTSLPSISTFVEGYSSNYELKPSCVYQMQRPLIKVEEGRAPSYHHHHHHHHHHHHHHQQQHQQPSIPPASSPEDEVLPSTSMYFKQSPPSTPTTPAFPPQAGALWDEALPSAPGCIAPGPLLDPPMKAVPTVAGARFPLFHFKPSPPHPPAPSPAGGHHLGYDPTAAAALSLPLGAAAAAGSQAAALESHPYGLPLAKRAAPLAFPPLGLTPSPTASSLLGESPSLPSPPSRSSSSGEGTCAVCGDNAACQHYGVRTCEGCKGFFKRTVQKNAKYVCLANKNCPVDKRRRNRCQYCRFQKCLSVGMVKEVVRTDSLKGRRGRLPSKPKSPLQQEPSQPSPPSPPICMMNALVRALTDSTPRDLDYSRYCPTDQAAAGTDAEHVQQFYNLLTASIDVSRSWAEKIPGFTDLPKEDQTLLIESAFLELFVLRLSIRSNTAEDKFVFCNGLVLHRLQCLRGFGEWLDSIKDFSLNLQSLNLDIQALACLSALSMITERHGLKEPKRVEELCNKITSSLKDHQSKGQALEPTESKVLGALVELRKICTLGLQRIFYLKLEDLVSPPSIIDKLFLDTLPF
B4: SHP: Small Heterodimer Partner (NR0B2), cDNA driver (protein, UniProt Q15466 1-257, looked up)
Nuclear receptor subfamily 0 …: MSTSQPGACPCQGAASRPAILYALLSSSLKAVPRPRSRCLCRQHRPVQLCAPHRTCREALDVLAKTVAFLRNLPSFWQLPPQDQRRLLQGCWGPLFLLGLAQDAVTFEVAEAPVPSILKKILLEEPSSSGGSGQLPDRPQPSLAAVQWLQCCLESFWSLELSPKEYACLKGTILFNPDVPGLQAASHIGHLQQEAHWVLCEVLEPWCPAAQGRLTRVLLTASTLKSIPTSLLGDLFFRPIIGDVDIAGLLGDMLLLR
B5: GCNF: Germ Cell Nuclear Factor (NR6A1, GCNF1), cDNA driver (protein, UniProt Q15406 1-480, looked up)
Nuclear receptor subfamily 6 …: MERDEPPPSGGGGGGGSAGFLEPPAALPPPPRNGFCQDELAELDPGTISVSDDRAEQRTCLICGDRATGLHYGIISCEGCKGFFKRSICNKRVYRCSRDKNCVMSRKQRNRCQYCRLLKCLQMGMNRKAIREDGMPGGRNKSIGPVQISEEEIERIMSGQEFEEEANHWSNHGDSDHSSPGNRASESNQPSPGSTLSSSRSVELNGFMAFREQYMGMSVPPHYQYIPHLFSYSGHSPLLPQQARSLDPQSYSLIHQLLSAEDLEPLGTPMLIEDGYAVTQAELFALLCRLADELLFRQIAWIKKLPFFCELSIKDYTCLLSSTWQELILLSSLTVYSKQIFGELADVTAKYSPSDEELHRFSDEGMEVIERLIYLYHKFHQLKVSNEEYACMKAINFLNQDIRGLTSASQLEQLNKRYWYICQDFTEYKYTHQPNRFPDLMMCLPEIRYIAGKMVNVPLEQLPLLFKVVLHSCKTSVGKE

Legend:
mCAR promoter = assay: NHR-promoter luciferase screen, mCAR promoter; type: cell-based, mouse; conditions: for luciferase activity normalized to lacZ activity and to a control, mCAR: mCAR promoter-luciferase, CV-1 cells, NHR +/- ligand, control = 1.00; for Luc. act., normalized to lacZ / Normalized Luc. act., normalized to control: mCAR promoter, HR/ligand component
Method in brief: (§1)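 CV-1 cells were co-transfected with 50 ng NHR (homodimer or NHR/RXR heterodimer), 100 ng promoter-luciferase construct and 50 ng LacZ. Luciferase was normalized to LacZ and to a no-NHR/no-ligand control.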

hCAR promoter = assay: NHR-promoter luciferase screen, hCAR promoter; type: cell-based, human; conditions: for luciferase activity normalized to lacZ activity and to a control, hCAR: hCAR promoter-luciferase, CV-1 cells, NHR +/- ligand, control = 1.00; for Luc. act., normalized to lacZ / Normalized Luc. act., normalized to control: hCAR promoter, HR/ligand component
Method in brief: as §1

mUCP2 promoter = assay: NHR-promoter luciferase screen, mUCP2 promoter; type: cell-based, mouse; conditions: for Luc. act., normalized to lacZ / Normalized Luc. act., normalized to control: mUCP2 promoter reporter, co-transfected HR, with or without its ligand; for Normalized Luc. act., normalized to control: relative to control; for luciferase activity normalized to lacZ activity and to a control, mUCP2: mUCP2 promoter-luciferase, CV-1 cells, NHR +/- ligand, control = 1.00
Method in brief: as §1

mNPY promoter = assay: NHR-promoter luciferase screen, mNPY promoter; type: cell-based, mouse; conditions: for Results of assays of transcription factor (+/- ligand) with mNPY: Table 6d, luciferase activity relative to control (control = 1.00); for Luc. act., normalized to lacZ / Normalized Luc. act., normalized to control: mNPY promoter, HR component with or without ligand; for Normalized Luc. act., normalized to control: relative to control
Method in brief: as §1

mAdiponectin promoter = assay: NHR-promoter luciferase screen, mAdiponectin promoter; type: cell-based, mouse; conditions: for Luc. act., normalized to lacZ / Normalized Luc. act., normalized to control: Adiponectin, HR component without or with its ligand; for mAdiponectin promoter reporter activity: transcription factor +/- ligand, control = 1.00
Method in brief: as §1

Bmal1 promoter = assay: NHR-promoter luciferase screen, Bmal1 promoter; type: cell-based, mouse; conditions: for Luc. act., normalized to lacZ / Normalized Luc. act., normalized to control: Bmal1 promoter, HR component without or with ligand; for mBmal1 promoter reporter activity: transcription factor +/- ligand, control = 1.00
Method in brief: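 Luciferase activity was measured 48 h after transfection, normalized to LacZ and then to a control lacking NHR or ligand. CV-1 cells carried 100 ng Bmal1 reporter, 50 ng NHR construct and 50 ng LacZ.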

Molecule | luciferase activity normalized to lacZ activity and to a control, mCAR (mCAR promoter) | Luc. act., normalized to lacZ (mCAR promoter) | Normalized Luc. act., normalized to control (mCAR promoter) | luciferase activity normalized to lacZ activity and to a control, hCAR (hCAR promoter) | Luc. act., normalized to lacZ (hCAR promoter) | Normalized Luc. act., normalized to control (hCAR promoter) | Luc. act., normalized to lacZ (mUCP2 promoter) | Normalized Luc. act., normalized to control (mUCP2 promoter) | luciferase activity normalized to lacZ activity and to a control, mUCP2 (mUCP2 promoter) | Results of assays of transcription factor (+/- ligand) with mNPY (mNPY promoter) | Luc. act., normalized to lacZ (mNPY promoter) | Normalized Luc. act., normalized to control (mNPY promoter) | Luc. act., normalized to lacZ (mAdiponectin promoter) | Normalized Luc. act., normalized to control (mAdiponectin promoter) | mAdiponectin promoter reporter activity (mAdiponectin promoter) | Luc. act., normalized to lacZ (Bmal1 promoter) | Normalized Luc. act., normalized to control (Bmal1 promoter) | mBmal1 promoter reporter activity (Bmal1 promoter)
B1 | 0.57 | 21.74 | 0.6 | 0.58 | 18.4 | 0.6 | 129.8 | 1.2 | 1.18 | 0.72 | 60.4 | 0.7 | 35.8 | 0.6 | 0.57 | 8.1 | 0.5 | 0.52
B2 | 0.96 | 36.74 | 1.0 | 1.20 | 38.0 | 1.2 | 158.6 | 1.4 | 1.44 | 1.02 | 86.0 | 1.0 | 45.6 | 0.7 | 0.73 | 19.6 | 1.3 | 1.25
B3 | 0.57 | 21.58 | 0.6 | 0.54 | 16.9 | 0.5 | 150.1 | 1.4 | 1.37 | 0.72 | 60.4 | 0.7 | 35.7 | 0.6 | 0.57 | 7.5 | 0.5 | 0.48
B4 | 0.95 | 36.17 | 0.9 | 0.99 | 31.3 | 1.0 | 164.1 | 1.5 | 1.49 | 0.81 | 68.3 | 0.8 | 46.1 | 0.7 | 0.73 | 14.0 | 0.9 | 0.89
B5 | 0.78 | 29.68 | 0.8 | 0.93 | 29.2 | 0.9 | 139.9 | 1.3 | 1.27 | 0.64 | 53.5 | 0.6 | 63.1 | 1.0 | 1.00 | 13.7 | 0.9 | 0.88
